Assay [1] addresses T1, IGF1R on MCF7 breast cancer cells (UniProt P08069 31-1367, limits assumed).
T1 construct: whole, on cells; Endogenous receptor on MCF7 cells; also called MCF7 cells expressing IGF1R
Nature of the assay: flow cytometry on MCF7 cells, PE goat anti-human IgG secondary, median FL2-H, non-linear regression fit, the concentration axis is LogM. On the procedure:
(§1) This example illustrates in vitro data for anti-IGF1R antibodies cellular binding EC₅₀ measurements. […] In this example, the experimental procedure is as follows: 50,000 MCF7 breast cancer cells were aliquoted into the wells of a 96-well, v-bottom plate in 100 μl FACS Buffer (PBS+2% FBS). Cells were spun down, washed 1× with FACS Buffer, and then resuspended in 25 μl of antibody solution in triplicate. After 0.5 hr incubation, cells were washed 1× with FACS Buffer and resuspended in 50 μl PE-conjugated, goat anti-human IgG (γ-chain specific) secondary antibody (Southern Biotech Cat #2040-09). Cells were further incubated for 0.5 hr and then washed 1× with FACS Buffer. Cells were resuspended in 25 μl FACS Buffer and the median fluorescence intensity in the FL2-H channel was determined using the Intellicyt HTFC flow cytometer.
(§2) While these values range over orders of magnitude, all antibodies show strong, specific binding to MCF7 cells expressing IGF1R. Data was collected on the Intellicyt HTFC flow cytometer, processed using FlowJo software, and analyzed and plotted in Graph Pad Prizm using non-linear regression fit. Data points are shown as the median fluorescence intensity (MFI) of positively labeled cells +/− Std Error.
A general note: A flow cytometer gives signals particle by particle.

Assay [2] concerns the target T1, IGF1R on MCF7 breast cancer cells. Nature of the assay: cell-based or functional assay.
In another assay the target is T2, rhIGF1R (human, UniProt P08069 31-932, limits assumed).
T2 construct: Recombinant protein used in the Octet measurements; also called recombinant human IGF1R
The assay is described as follows: BLI, Forte Bio Octet Red; B9 on anti-hIgG Fc capture sensor. For orientation: In BLI a coated tip is dipped into the sample, and binding shifts an interference pattern.

Assay [3] concerns the target T1, IGF1R on MCF7 breast cancer cells. Nature of the assay: flow cytometry, binding to MCF7 cells, PE anti-human IgG detection. The method, then:
as §1, §2

The next assay deals with Insulin Receptor (UniProt P06213-2 28-944, limits assumed). Nature of the assay: ELISA, one condition. For orientation: In an ELISA, binding on a coated surface is turned into a signal by an enzyme label.

The results in this text go back to patent US20130344069A1 (SORRENTO THERAPEUTICS, published 2013).

T1 sequence (P08069 31-1367 limits assumed): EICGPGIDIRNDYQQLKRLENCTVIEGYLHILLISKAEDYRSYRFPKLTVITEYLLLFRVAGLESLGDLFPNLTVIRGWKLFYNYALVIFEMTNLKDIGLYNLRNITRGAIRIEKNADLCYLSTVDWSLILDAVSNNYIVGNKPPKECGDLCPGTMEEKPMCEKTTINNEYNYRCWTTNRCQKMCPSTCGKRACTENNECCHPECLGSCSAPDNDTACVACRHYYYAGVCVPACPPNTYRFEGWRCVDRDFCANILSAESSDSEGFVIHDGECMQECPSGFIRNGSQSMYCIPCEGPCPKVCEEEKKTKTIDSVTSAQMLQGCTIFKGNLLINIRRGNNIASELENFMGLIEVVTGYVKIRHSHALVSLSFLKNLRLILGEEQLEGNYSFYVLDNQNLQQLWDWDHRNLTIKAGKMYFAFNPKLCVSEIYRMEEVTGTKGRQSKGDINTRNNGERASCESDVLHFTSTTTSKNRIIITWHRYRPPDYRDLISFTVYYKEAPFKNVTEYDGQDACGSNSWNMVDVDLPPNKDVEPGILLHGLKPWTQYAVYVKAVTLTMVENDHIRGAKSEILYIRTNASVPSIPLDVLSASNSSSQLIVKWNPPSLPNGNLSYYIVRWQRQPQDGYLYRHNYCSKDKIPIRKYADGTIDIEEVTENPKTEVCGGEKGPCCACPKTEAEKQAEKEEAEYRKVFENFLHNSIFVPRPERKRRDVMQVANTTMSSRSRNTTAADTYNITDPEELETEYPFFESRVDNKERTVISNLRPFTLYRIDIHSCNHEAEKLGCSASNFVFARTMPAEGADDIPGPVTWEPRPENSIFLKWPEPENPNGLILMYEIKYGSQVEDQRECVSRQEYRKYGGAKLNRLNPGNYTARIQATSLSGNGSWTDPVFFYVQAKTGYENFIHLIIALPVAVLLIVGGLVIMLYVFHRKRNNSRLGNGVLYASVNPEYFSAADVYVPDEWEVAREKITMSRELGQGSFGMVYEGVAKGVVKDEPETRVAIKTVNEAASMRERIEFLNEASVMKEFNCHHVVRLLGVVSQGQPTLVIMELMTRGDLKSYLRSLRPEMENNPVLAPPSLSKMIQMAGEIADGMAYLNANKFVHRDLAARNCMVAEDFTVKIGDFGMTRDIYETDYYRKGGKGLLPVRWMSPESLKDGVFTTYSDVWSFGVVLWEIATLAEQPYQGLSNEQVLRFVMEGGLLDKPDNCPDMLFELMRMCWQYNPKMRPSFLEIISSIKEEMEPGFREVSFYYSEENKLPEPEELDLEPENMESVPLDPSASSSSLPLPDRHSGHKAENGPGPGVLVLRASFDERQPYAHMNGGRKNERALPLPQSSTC
Sequence of Insulin Receptor (P06213 other isoform, or with tags, fused parts or gaps limits assumed): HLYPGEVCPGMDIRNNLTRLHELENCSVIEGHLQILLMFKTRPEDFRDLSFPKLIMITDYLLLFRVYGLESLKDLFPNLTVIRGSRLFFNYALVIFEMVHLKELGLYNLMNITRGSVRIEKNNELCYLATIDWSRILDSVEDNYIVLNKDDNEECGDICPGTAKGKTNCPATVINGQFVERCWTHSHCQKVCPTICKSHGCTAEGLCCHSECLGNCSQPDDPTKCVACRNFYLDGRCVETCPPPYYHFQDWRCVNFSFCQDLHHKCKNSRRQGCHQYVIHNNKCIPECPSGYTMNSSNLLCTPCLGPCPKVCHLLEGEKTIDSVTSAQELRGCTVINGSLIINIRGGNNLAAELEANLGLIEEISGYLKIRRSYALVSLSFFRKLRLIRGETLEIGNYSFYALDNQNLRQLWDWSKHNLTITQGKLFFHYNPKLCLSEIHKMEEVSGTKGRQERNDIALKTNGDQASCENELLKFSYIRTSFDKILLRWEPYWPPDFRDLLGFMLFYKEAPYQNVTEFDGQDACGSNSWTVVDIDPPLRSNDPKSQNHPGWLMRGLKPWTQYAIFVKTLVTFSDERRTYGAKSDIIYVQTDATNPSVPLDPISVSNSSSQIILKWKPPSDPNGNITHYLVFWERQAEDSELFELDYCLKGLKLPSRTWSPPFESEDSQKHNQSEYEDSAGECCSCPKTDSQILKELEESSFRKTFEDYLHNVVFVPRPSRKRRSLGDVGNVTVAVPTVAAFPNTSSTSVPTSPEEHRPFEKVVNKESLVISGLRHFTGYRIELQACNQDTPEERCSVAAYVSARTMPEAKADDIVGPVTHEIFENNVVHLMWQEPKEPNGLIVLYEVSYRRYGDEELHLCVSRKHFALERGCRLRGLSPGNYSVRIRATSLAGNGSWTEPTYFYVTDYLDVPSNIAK
T2 sequence (P08069 31-932 limits assumed): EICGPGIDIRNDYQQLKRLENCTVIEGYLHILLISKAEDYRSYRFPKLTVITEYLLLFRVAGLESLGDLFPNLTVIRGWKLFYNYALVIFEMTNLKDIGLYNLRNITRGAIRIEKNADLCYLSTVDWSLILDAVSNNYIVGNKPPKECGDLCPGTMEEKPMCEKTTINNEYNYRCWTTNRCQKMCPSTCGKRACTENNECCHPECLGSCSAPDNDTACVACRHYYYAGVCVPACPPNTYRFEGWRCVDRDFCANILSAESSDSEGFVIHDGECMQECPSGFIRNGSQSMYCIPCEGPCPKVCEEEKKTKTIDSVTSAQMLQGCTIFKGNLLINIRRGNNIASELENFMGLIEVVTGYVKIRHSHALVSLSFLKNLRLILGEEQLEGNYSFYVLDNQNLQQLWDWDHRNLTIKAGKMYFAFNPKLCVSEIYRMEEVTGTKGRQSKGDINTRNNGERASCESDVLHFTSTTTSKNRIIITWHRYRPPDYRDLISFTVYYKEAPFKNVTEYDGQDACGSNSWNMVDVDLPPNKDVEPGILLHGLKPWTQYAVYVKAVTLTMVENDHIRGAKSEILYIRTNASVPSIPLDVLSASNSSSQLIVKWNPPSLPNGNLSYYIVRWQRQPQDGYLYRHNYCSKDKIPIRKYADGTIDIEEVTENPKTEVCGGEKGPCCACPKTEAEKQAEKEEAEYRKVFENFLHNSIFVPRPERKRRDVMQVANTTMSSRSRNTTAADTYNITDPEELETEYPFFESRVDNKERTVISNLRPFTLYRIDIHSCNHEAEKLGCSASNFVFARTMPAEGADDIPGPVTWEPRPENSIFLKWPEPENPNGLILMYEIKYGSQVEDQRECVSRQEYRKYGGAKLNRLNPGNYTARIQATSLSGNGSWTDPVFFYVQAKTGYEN

B1: anti-IGF1R antibody A6 (antibody, V domains shown)
VH: QVQLVQSGAEVMKPGASVKVSCKASGYTFTSYGISWVRQAPGQGLEWMGWISAYNGNTNYAQMLQGRVTMTTDTSTSTAYMELRSLRSDDTAVYYCARRGLSSYYYGMDVWGQGTTVTVSS
VL: QPVLTQPPSVSAAPGQKVTISCSGGTSNVANNYVSWYQQLPGTAPKLLIYGNSNRPSGVPDRFSGSKSGTSASLAITGLQAEDEADYYCQSYDTSLSGYVFGSGTKVTVL
notes: also called clone A6
Usually EC50 stands for the midpoint of the concentration-response curve. Read a high EC50 as a less potent agent. As for B1, the concentration giving a half-maximal response (EC50) in assay [1] stood at 0.705 nM. This lies in the sub-nanomolar range.

B2: anti-IGF1R antibody B9 (antibody, V domains shown)
VH: EVQLLESGGGLVQPGGSLRLSCAASGFTFSSYEMNWVRQAPGKGLEWVSYISTGDSTRSYADSVRGRFTISRDNAKNSLYLQMNSLRAEDTAVYYCARESGTWYGGWYFDLWGRGTLVTVSS
VL: QSVVTQPPSVSAAPGQKVTISCAGSTSNIGNNFVSWYQQLPGTAPKLLIYDNNKRPSEIPDRFSGSKSGTSATLGITGLQTGDEADYYCVTWDSSLSVVLFGGGTKVTVL
notes: Fully human antibody of an IgG class (captured on an anti-hIgG Fc sensor, detected with anti-human IgG); also called clone B9
As a reminder, the Kd is the concentration at which binding is half-saturated. A higher Kd goes with weaker binding. As for B2, the half-maximal effective concentration (EC50) in assay [1] stood at 0.0374 nM; in assay [3], 0.0037 nM. Moreover, the “IC50 of inhibition of IGF1-stimulated IGF1R auto-phosphorylation in MCF7 cells” value in assay [2] is 0.094 nM. The equilibrium dissociation constant (Kd) in the assay with rhIGF1R was 1.25 nM. Besides, in the assay with Insulin Receptor, the binding result is reported as “no binding (tested: not given)”.

B3: anti-IGF1R antibody B10 (antibody, V domains shown)
VH: QVQLVQSGAEVKKPGASVKVSCKGSGYNFPTQAIHWVRQAPGQRLEWMGWTNTANGNAKYSQKFQGRVTITRDTYASTDYMELSSLTSEDTAIYYCTRDRFTGSGTYGMDVWGQGTTVTVSS
VL: SYELMQPSSVSVSPGQTARITCSGDLLTRRYARWFQQKPGQAPLLIIYRDTVRPSGIPERFSASSSGATITLTISGAQLEDEADYYCYSATDNNVVFGGGTKLTVL
notes: Fully human antibody of an IgG class; also called clone B10
In the case of B3, in assay [1], the response was half-maximal at 5.83 nM (EC50). Besides, the binding result in the assay with Insulin Receptor is recorded as “no binding (tested: not given)”.

B4: anti-IGF1R antibody C8 (antibody, V domains shown)
VH: QVQLVQSGAEVKKPGSSVKVSCKASGGSFNSFSISWVRQAPGQGLEWMGGITPMFGIGDNAQKFQDRVAITADESMSTFYMELSNLRFEDTAMYFCAREVGGLGFDVWGQGTTVTVSS
VL: VIWMTQSPSSLSASVGDRVTFTCQASQHISKYLNWYQQKPGKAPKLLIYDASNLETGVPSRFSGSGSATDFTLTISSLQPEDFATYYCQQSYLTSYTFGQGTKVDIK
notes: Fully human antibody of an IgG class; also called clone C8
Regarding B4, a half-maximal response in assay [1] (EC50) required 16.1 nM. Besides, the binding result in the assay with Insulin Receptor is “no binding (tested: not given)”.
